Results as given in IntAct's records for PubMed 27284196.

B1: Transcriptional regulator LdrP (Thermus thermophilus (strain HB8 / ATCC 27634 / DSM 579)), Q53W63 (parent)
chain: MKRFARKETIYLRGEEARTLYRLEEGLVRVVELLPDGRLITLRHVLPGDYFGEEALEGKAYRYTAEAMTEAVVQGLEPRAMDHEALHRVARNLARQMRRVQAYEAHLQTGELRARIARYLLFLADTPLSARDRQGIYVTVSHEEIADATASIRESVSKVLADLRREGLIATAYRRVYLLDLAALEREAGSALEAA
partner: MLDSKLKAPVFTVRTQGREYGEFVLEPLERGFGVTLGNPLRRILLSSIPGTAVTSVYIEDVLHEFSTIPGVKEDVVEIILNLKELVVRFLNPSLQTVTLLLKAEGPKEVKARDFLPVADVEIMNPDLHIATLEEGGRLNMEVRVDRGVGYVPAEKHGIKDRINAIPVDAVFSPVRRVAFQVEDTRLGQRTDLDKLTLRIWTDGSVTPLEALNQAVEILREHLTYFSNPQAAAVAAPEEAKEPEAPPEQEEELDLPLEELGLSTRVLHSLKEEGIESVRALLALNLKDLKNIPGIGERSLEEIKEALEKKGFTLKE

Variants of: B1
Settings: with rpoa_thet8 rpoA

Question: Which “effect of a mutation on the interaction” value does the source give for MKRFARKETIYLRGEEARTLYRLEEGLVRVVELLPDGRLITLRHVLPGDYFGEEALEGKAYRYTAEAMTEAVVQGLEPRAMDHEALHRVARNLARQMRRVQAYEAHLQTGELRARIARYLLFLAKTPLSARDRQGIYVTVSHEEIADATASIRESVSKVLADLRREGLIATAYRRVYLLDLAALEREAGSALEAA here?
Answer: The value was “disrupting interaction strength”.

Question: For MKRFARKETIYLRGEEARTLYRLEEGLVRVVELLPDGRLITLRHVLPGDYFGEEALEGKAYRYTAEAMTEAVVQGLEPRAMDHEALHRVARNLARQMRRVQAYEAHLQTGELRARIARYLLFLADTPLSARDRQGIYVTVSHEEIADATASIRESVSKVLADLRREGLIATAYRRVYLLDLAALKREAGSALEAA, which “effect of a mutation on the interaction” value is on record?
Answer: The value was “disrupting interaction strength”.
